Here are results for 42 molecules from US20210388087A1 (Chugai, published 2021).

B1: H183/L072 VH A60Q (antibody, name in Kabat numbering, V domains shown)
VH: QVQLVESGGGLVQPGRSLRLSCAASGFTFSNAWMHWVRQAPGKGLEWVAQIKDKGNAYAAYYQPSVKGRFTISRDDSKNSIYLQMNSLKTEDTAVYYCHYVHYASASTVLPAFGVDAWGQGTTVTVSS
VL: DIVMTQSPLSLPVTPGEPASISCQASQELVHMNRNTYLHWYQQKPGQAPRLLIYKVSNRFPGVPDRFSGSGSGTDFTLKISRVEAEDVGVYYCAQGTSVPFTFGQGTKLEIK
B2: H183/L072 VH A102P (antibody, name in Kabat numbering, V domains shown)
VH: B1 VH with Q63A, A117P
VL: B1 VL
B3: H183/L072 VH D52aA (antibody, name in Kabat numbering, V domains shown)
VH: B1 VH with D53A, Q63A
VL: B1 VL
B4: H183/L072 VH A60R (antibody, name in Kabat numbering, V domains shown)
VH: B1 VH with Q63R
VL: B1 VL
B5: H183/L072 VH D52aH (antibody, name in Kabat numbering, V domains shown)
VH: B1 VH with D53H, Q63A
VL: B1 VL
B6: H183/L072 VH A100fI (antibody, name in Kabat numbering, V domains shown)
VH: B1 VH with Q63A, A112I
VL: B1 VL
B7: H183/L072 VH A102I (antibody, name in Kabat numbering, V domains shown)
VH: B1 VH with Q63A, A117I
VL: B1 VL
B8: H183/L072 VH D52aK (antibody, name in Kabat numbering, V domains shown)
VH: B1 VH with D53K, Q63A
VL: B1 VL
B9: H183/L072 VH A100P (antibody, name in Kabat numbering, V domains shown)
VH: B1 VH with Q63A, A106P
VL: B1 VL
B10: H183/L072 VH A98P (antibody, name in Kabat numbering, V domains shown)
VH: B1 VH with Q63A, A104P
VL: B1 VL
B11: H183/L072 VH D52aQ (antibody, name in Kabat numbering, V domains shown)
VH: B1 VH with D53Q, Q63A
VL: B1 VL
B12: H183/L072 VH A98M (antibody, name in Kabat numbering, V domains shown)
VH: B1 VH with Q63A, A104M
VL: B1 VL
B13: H183/L072 VH A60V (antibody, name in Kabat numbering, V domains shown)
VH: B1 VH with Q63V
VL: B1 VL
B14: H183/L072 VH D52aT (antibody, name in Kabat numbering, V domains shown)
VH: B1 VH with D53T, Q63A
VL: B1 VL
B15: H183/L072 VH A100fL (antibody, name in Kabat numbering, V domains shown)
VH: B1 VH with Q63A, A112L
VL: B1 VL
B16: H183/L072 VH A100fM (antibody, name in Kabat numbering, V domains shown)
VH: B1 VH with Q63A, A112M
VL: B1 VL
B17: H183/L072 VH D52aI (antibody, name in Kabat numbering, V domains shown)
VH: B1 VH with D53I, Q63A
VL: B1 VL
B18: H183/L072 VH D52aG (antibody, name in Kabat numbering, V domains shown)
VH: B1 VH with D53G, Q63A
VL: B1 VL
B19: H183/L072 VH D52aM (antibody, name in Kabat numbering, V domains shown)
VH: B1 VH with D53M, Q63A
VL: B1 VL
B20: H183/L072 VH A102M (antibody, name in Kabat numbering, V domains shown)
VH: B1 VH with Q63A, A117M
VL: B1 VL
B21: H183/L072 VH A100L (antibody, name in Kabat numbering, V domains shown)
VH: B1 VH with Q63A, A106L
VL: B1 VL
B22: H183/L072 VH A60T (antibody, name in Kabat numbering, V domains shown)
VH: B1 VH with Q63T
VL: B1 VL
B23: H183/L072 VH D52aY (antibody, name in Kabat numbering, V domains shown)
VH: B1 VH with D53Y, Q63A
VL: B1 VL
B24: H183/L072 VH D52aL (antibody, name in Kabat numbering, V domains shown)
VH: B1 VH with D53L, Q63A
VL: B1 VL
B25: H183/L072 VH D52aW (antibody, name in Kabat numbering, V domains shown)
VH: B1 VH with D53W, Q63A
VL: B1 VL
B26: H183/L072 VH A102L (antibody, name in Kabat numbering, V domains shown)
VH: B1 VH with Q63A, A117L
VL: B1 VL
B27: H183/L072 VH D52aV (antibody, name in Kabat numbering, V domains shown)
VH: B1 VH with D53V, Q63A
VL: B1 VL
B28: H183/L072 VH A100I (antibody, name in Kabat numbering, V domains shown)
VH: B1 VH with Q63A, A106I
VL: B1 VL
B29: H183/L072 VH D52aN (antibody, name in Kabat numbering, V domains shown)
VH: B1 VH with D53N, Q63A
VL: B1 VL
B30: H183/L072 VH A60W (antibody, name in Kabat numbering, V domains shown)
VH: B1 VH with Q63W
VL: B1 VL
B31: H183/L072 VH A100M (antibody, name in Kabat numbering, V domains shown)
VH: B1 VH with Q63A, A106M
VL: B1 VL
B32: H183/L072 VH A60S (antibody, name in Kabat numbering, V domains shown)
VH: B1 VH with Q63S
VL: B1 VL
B33: H183/L072 VH D52aE (antibody, name in Kabat numbering, V domains shown)
VH: B1 VH with D53E, Q63A
VL: B1 VL
B34: H183/L072 VH D52aR (antibody, name in Kabat numbering, V domains shown)
VH: B1 VH with D53R, Q63A
VL: B1 VL
B35: H183/L072 VH A100fP (antibody, name in Kabat numbering, V domains shown)
VH: B1 VH with Q63A, A112P
VL: B1 VL
B36: H183/L072 VH A98L (antibody, name in Kabat numbering, V domains shown)
VH: B1 VH with Q63A, A104L
VL: B1 VL
B37: H183/L072 VH D52aF (antibody, name in Kabat numbering, V domains shown)
VH: B1 VH with D53F, Q63A
VL: B1 VL
B38: H183/L072 VH A60Y (antibody, name in Kabat numbering, V domains shown)
VH: B1 VH with Q63Y
VL: B1 VL
B39: H183/L072 VH D101A (antibody, name in Kabat numbering, V domains shown)
VH: B1 VH with Q63A, D116A
VL: B1 VL
B40: H183/L072 VH D52aP (antibody, name in Kabat numbering, V domains shown)
VH: B1 VH with D53P, Q63A
VL: B1 VL
B41: H183/L072 VH D52aS (antibody, name in Kabat numbering, V domains shown)
VH: B1 VH with D53S, Q63A
VL: B1 VL
B42: H183/L072 VH A98I (antibody, name in Kabat numbering, V domains shown)
VH: B1 VH with Q63A, A104I
VL: B1 VL

Positions count from the first letter of the chain named. Numbers in names are those of the source.

This assay has as its target T1, Human CD3eg linker (human).
T1 construct: Single chain: epsilon and gamma subunits of human CD3 joined by a 29-mer linker, Flag-tag at the C-terminus; also called recombinant human CD3
T1 chain: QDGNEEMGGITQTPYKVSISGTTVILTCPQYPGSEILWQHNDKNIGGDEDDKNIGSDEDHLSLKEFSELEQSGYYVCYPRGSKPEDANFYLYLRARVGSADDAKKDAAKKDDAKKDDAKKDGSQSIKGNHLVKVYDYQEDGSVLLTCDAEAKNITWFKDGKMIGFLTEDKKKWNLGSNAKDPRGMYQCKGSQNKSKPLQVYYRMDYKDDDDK
The assay can be described thus: Biacore SPR, vs template H183/L072. In general terms: Surface plasmon resonance follows binding to a sensor surface in real time, without labels.
On to B1, for which the “fold change of affinity” value is 1.1 fold.
With B2 the figure was 0 fold.
With B3 the figure was 0 fold.
With B4 the figure was 1 fold.
Turning to B5, the “fold change of affinity” value was 0.3 fold.
The same measure for B6: 1 fold; for B7: 0.9 fold.
With B8 the figure was 0 fold; with B9, 1.3 fold.
With B10 the figure was 0.2 fold; with B11, 0 fold.
Regarding B12, the “fold change of affinity” value came out at 1 fold.
The same measure for B13: 1 fold; for B14: 0 fold; for B15: 1.2 fold.
As for B16, the “fold change of affinity” value was determined as 1.3 fold.
The same measure for B17: 0 fold; for B18: 0.2 fold.
With B19, the “fold change of affinity” value worked out at 0 fold.
With B20 the figure was 1 fold; with B21, 1.2 fold.
The same measure for B22: 0.9 fold.
In the case of B23, the “fold change of affinity” value is 0 fold.
With B24 the figure was 0 fold; with B25, 0 fold; with B26, 0.7 fold.
With B27 the figure was 0 fold.
With B28 the figure was 1.4 fold; with B29, 0.1 fold.
As to B30, the “fold change of affinity” value came out at 1 fold.
The same measure for B31: 1 fold; for B32: 1.3 fold; for B33: 0 fold.
With B34 the figure was 0 fold.
With B35 the figure was 0.6 fold.
For B36, the “fold change of affinity” value is 3.7 fold.
As for B37, the “fold change of affinity” value amounted to 0 fold.
As to B38, the “fold change of affinity” value was determined as 0.7 fold.
With B39 the figure was 0.8 fold; with B40, 0 fold.
On to B41, for which the “fold change of affinity” value stood at 0 fold.
The same measure for B42: 4.6 fold.
